This passage reports pKa results from PMC3411786.

The target of data set [1] is Asp85 (UniProt position 98, WARYADWLFTA). As to the kind of experiment: UV-vis. Conditions: pH adjusted with 0.1 M HCl or NaOH, Retinal-reconstituted chromoprotein in purple membrane, ground state. Light/dark adaptation state during the titration is not stated.
In data set [2] the target is Asp85 (UniProt position 98, WARYADWLFTT). As to the kind of experiment: UV-vis. The settings on record: pH adjusted with 0.1 M HCl or NaOH, Retinal-reconstituted chromoprotein in purple membrane, ground state. Light/dark adaptation state during the titration is not stated.
Setting [3] is: 150 mM KCl, none stated (Methods say non-buffered).
[4] abbreviates: Deionised water with no added salt, apart from the HCl/NaOH titrant, none (non-buffered).

One may read the pKa as the negative logarithm of the acid dissociation constant. For the substance “Bacteriorhodopsin T90A, bacterioopsin reconstituted with 13-ethyl retinal (T90A-13E-RET) (Halobacterium salinarum; T90A)”, the pKa in data set [1] (setting [3]) is reported as 6.4; in data set [1] (setting [4]), 6.7.
“Bacteriorhodopsin T90A, bacterioopsin reconstituted with all-trans retinal (T90A-AT) (Halobacterium salinarum; T90A)”: the pKa stood at 5.8 in data set [1] (setting [3]) and 6.1 in data set [1] (setting [4]).
Consider “Bacteriorhodopsin, wild-type bacterioopsin reconstituted with 13-ethyl retinal (WT-13E-RET) (Halobacterium salinarum)”, for which the pKa in data set [2] (setting [3]) was determined as 4.5; in data set [2] (setting [4]), 4.7.
On to “Bacteriorhodopsin, wild-type bacterioopsin reconstituted with all-trans retinal (WT-AT) (Halobacterium salinarum)”, for which the pKa in data set [2] (setting [3]) is on record as 3.9; in data set [2] (setting [4]) it was 4.6.
